Data reported in patent US20070065439A1 (Amgen, published 2007).
One block for each binder: values may come before it.

Assays:
[1] = biological target: T1, Recombinant human IL-1beta (rhIL-1b) (human, UniProt P01584 117-269); test: KinExA, triple curve analysis
T1 construct: R&D Systems Cat. No. 201-LB/CF; also called IL-1β; human IL-1β

[2] = biological target: T1, Recombinant human IL-1beta (rhIL-1b); test: cell-based or functional assay
[3] = biological target: T1, Recombinant human IL-1beta (rhIL-1b); test: KinExA, single KD-controlled titration
[4] = biological target: T1, Recombinant human IL-1beta (rhIL-1b); test: Biacore high-res, mAb amine-coupled, 23C, long association and dissociation, IL-1β 55 pM
[5] = biological target: T2, IL-1β R4A mutant (human, UniProt P01584 117-269); test: binding to site-directed IL-1β mutant; X = abrogation of binding
T2 construct: site-directed mutant

[6] = biological target: T1, Recombinant human IL-1beta (rhIL-1b); test: KinExA direct kinetic method
[7] = biological target: T1, Recombinant human IL-1beta (rhIL-1b); test: Biacore low-res, mAb captured, 25C; IL-1β in solution (118 nM) over captured mAb; low-resolution Biacore, 25 C; poor fit to 1:1 model
[8] = biological target: T1, Recombinant human IL-1beta (rhIL-1b); test: Biacore, Medium Resolution; complex kinetics; IL-1β in solution; medium-resolution Biacore; complex kinetics
[9] = biological target: T1, Recombinant human IL-1beta (rhIL-1b); test: calculated as kon x KD from KinExA
[10] = biological target: T1, Recombinant human IL-1beta (rhIL-1b); test: cell-based or functional assay; remark: listed apart in the source
[11] = biological target: T1, Recombinant human IL-1beta (rhIL-1b); test: cell-based or functional assay; remark: listed apart in the source
[12] = biological target: T3, IL-1β H30A mutant (human, UniProt P01584 117-269); test: binding to site-directed IL-1β mutants
T3 construct: site-directed mutant

[13] = biological target: T4, IL-1β R11A mutant (human, UniProt P01584 117-269); test: binding to site-directed IL-1β mutants
T4 construct: site-directed mutant

[14] = biological target: T1, Recombinant human IL-1beta (rhIL-1b); test: Biacore, Low Resolution screen; complex kinetics
[15] = biological target: T1, Recombinant human IL-1beta (rhIL-1b); test: Biacore low-res, mAb captured, 25C; poor fit to 1:1 model; IL-1β in solution (118 nM) over captured mAb; low-resolution Biacore, 25 C; poor fit to 1:1 model
[16] = biological target: T1, Recombinant human IL-1beta (rhIL-1b); test: Biacore, Medium Resolution; IL-1β in solution; medium-resolution Biacore; complex kinetics
[17] = biological target: T1, Recombinant human IL-1beta (rhIL-1b); test: cell-based or functional assay; remark: listed apart in the source
[18] = biological target: T3, IL-1β H30A mutant; test: binding to site-directed IL-1β mutant; X = abrogation of binding
[19] = biological target: T4, IL-1β R11A mutant; test: as above
[20] = biological target: T1, Recombinant human IL-1beta (rhIL-1b); test: Biacore, Medium Resolution; IL-1β in solution; medium-resolution Biacore
[21] = biological target: T1, Recombinant human IL-1beta (rhIL-1b); test: Biacore low-res, mAb captured, 25C; IL-1β in solution (118 nM) over captured mAb; low-resolution Biacore, 25 C
[22] = biological target: T1, Recombinant human IL-1beta (rhIL-1b); test: Biacore, Low Resolution screen

Kd [1]: 0.181 pM | % IL-6 production, supernatant 1:5 dilut. [2]: 0% | % IL-6 production, supernatant 1:10 dilut. [2]: 0% | % IL-6 production, supernatant 1:20 dilut. [2]: 0% | Kd [3]: 0.04 pM | Kd [4]: 1.5 pM | koff [4]: 1.1e-06 s⁻¹ | kon [4]: 710000 M⁻¹ s⁻¹ | binding result [5]: no binding | kon [6]: 3.4e+06 M⁻¹ s⁻¹ | koff [7]: 0.0018 s⁻¹ | kon [7]: 1.1e+06 M⁻¹ s⁻¹ | Kd [8]: 130 pM | koff [9]: 6.1e-07 s⁻¹ | EC50, inhibition of IL-1β-induced IL-6 production in MRC-5 cells [10]: 4 pM | EC50, inhibition of IL-1β-induced IL-8 production in human whole blood [11]: 135 pM | binding result [12]: binds | binding result [13]: binds | Kd [14]: 1640 pM | Kd [15]: 1640 pM | koff [16]: 0.00035 s⁻¹ | kon [16]: 2.6e+06 M⁻¹ s⁻¹ | In Vivo Potency EC50, inhibition of IL-6 induced in mice by human IL-1β [17]: 5 pmoles/mouse
B1: 9.5.2 IgG4 (antibody, V domains shown)
VH: EVQLVESGGGLVKPGRSLRLSCTGSGFTFGDYALNWFRQAPGMGLEWVGFIRGKAYGGTTEYAASVKGRFTISRDDSKSIAYLQMNSLKTEDTAVYYCNREVEYCRSSENYCYGMDVWGQGTTVTVS
VL: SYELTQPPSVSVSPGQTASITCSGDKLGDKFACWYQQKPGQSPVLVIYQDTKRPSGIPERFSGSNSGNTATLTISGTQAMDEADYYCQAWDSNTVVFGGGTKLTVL
notes: also called mAb 9.5.2; mAb 9.5.2 (IgG4 isotype)

% IL-6 production, supernatant 1:5 dilut. [2]: 5% | % IL-6 production, supernatant 1:10 dilut. [2]: 21% | % IL-6 production, supernatant 1:20 dilut. [2]: 36% | binding result [18]: no binding | binding result [19]: no binding | EC50, inhibition of IL-1β-induced IL-6 production in MRC-5 cells [10]: 11600 pM | Kd [20]: 140 pM | koff [20]: 0.00035 s⁻¹ | kon [20]: 2.5e+06 M⁻¹ s⁻¹ | Kd [21]: 370 pM | koff [21]: 0.00085 s⁻¹ | kon [21]: 2.3e+06 M⁻¹ s⁻¹ | Kd [22]: 370 pM
B2: 9.54.1 (antibody, human IgG4, V domains shown)
VH: QVQLVESGGGVVQPGRSLRLSCAASGFTFSSFGMHWVRQAPGKGLEWVAVIWYDGSNKYYADSVKGRFTISRDNSKNTLYLQMNSLRAEDTAVYYCARDPNYDILTGYYYYGMDVWGQGTTVTVS
VL: SSELTQDPAVSVALGQTVRITCQGDILRTYYASWYQQKPGQAPVLVIYGKNDRPSGIPDRFSGSSSGNTASLTITGAQAEDEADYYCDSRDNTVTHLVFGGGTKLTVL
notes: lambda; also called 9.54.2
